The text below walks through data of article PMC7595112, “Ketohexokinase-A acts as a nuclear protein kinase that mediates fructose-induced metastasis in breast cancer” (Nature Communications, 2020).

The target in one experiment is SLUG (SNAIL2) (UniProt O43623). The experiment can be described thus: co-immunoprecipitation, immunoblot. Conditions: reference: wild-type YWHAH; sites S25. A general note: In western blotting, separated proteins are transferred to a membrane and probed.
For experiment [1], the target named is T1, FLAG-LRRC59 purified from HEK293T cells (human, UniProt Q96AG4 1-307).
T1 construct: leucine-rich repeat-containing protein 59, human cDNA NM_018509 cloned by RT-PCR into pcDNA-FLAG
T1 sequence (looked up): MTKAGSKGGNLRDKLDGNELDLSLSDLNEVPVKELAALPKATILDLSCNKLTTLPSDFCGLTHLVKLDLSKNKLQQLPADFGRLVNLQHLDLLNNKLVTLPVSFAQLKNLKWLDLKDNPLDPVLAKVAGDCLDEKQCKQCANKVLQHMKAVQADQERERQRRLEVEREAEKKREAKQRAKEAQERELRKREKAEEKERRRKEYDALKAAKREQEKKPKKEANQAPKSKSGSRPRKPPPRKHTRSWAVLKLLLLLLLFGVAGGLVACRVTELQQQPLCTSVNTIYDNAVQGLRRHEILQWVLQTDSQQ
The experiment can be described thus: pull-down; purified His-KHK-A and FLAG-LRRC59 incubated 1 h at 4 °C with 1 mM fructose in 25 mM HEPES pH 7.5, 150 mM KCl, 12.5 mM MgCl2, 0.5 mM DTT, 0.1% NP-40, 10% glycerol; His-KHK-A pulled down with nickel-NTA, anti-Flag blot. Conditions: both partners purified.

Turning to “YWHAH (14-3-3η) (from UniProt Q04917) YWHAH S25A”, the “binding against the reference” value with SLUG (SNAIL2) is “lost”.

B1: His(6)-KHK-A purified from HEK293T cells (enzyme, human)
chain: MEEKQILCVGLVVLDVISLVDKYPKEDSEIRCLSQRWQRGGNASNSCTVLSLLGAPCAFMGSMAPGHVADFVLDDLRRYSVDLRYTVFQTTGSVPIATVIINEASGSRTILYYDRSLPDVSATDFEKVDLTQFKWIHIEGRNASEQVKMLQRIDAHNTRQPPEQKIRVSVEVEKPREELFQLFGYGDVVFVSKDVAKHLGFQSAEEALRGLYGRVRKGAVLVCAWAEEGADALGPDGKLLHSDAFPPPRVVDTLGAGDTFNASVIFSLSQGRSVQEALRFGCQVAGKKCGLQGFDGIV
notes: ketohexokinase isoform A (KHK-A), human cDNA NM_000221 cloned by RT-PCR into pcDNA-His(6); also called His-KHK-A; purified KHK-A; source: HEK293T, purified (nickel-NTA beads, eluted with 250 mM imidazole)
On to B1, for which the binding result in experiment [1] is reported as “binds”.
